Experimental findings from PMC10870365, “Dissection of protein and RNA regions required for SPEN binding to XIST A-repeat RNA” are described below.

For data set [1], the target named is T1, SPEN RRM 1-4 (Homo sapiens) (UniProt Q96T58).
T1 sequence: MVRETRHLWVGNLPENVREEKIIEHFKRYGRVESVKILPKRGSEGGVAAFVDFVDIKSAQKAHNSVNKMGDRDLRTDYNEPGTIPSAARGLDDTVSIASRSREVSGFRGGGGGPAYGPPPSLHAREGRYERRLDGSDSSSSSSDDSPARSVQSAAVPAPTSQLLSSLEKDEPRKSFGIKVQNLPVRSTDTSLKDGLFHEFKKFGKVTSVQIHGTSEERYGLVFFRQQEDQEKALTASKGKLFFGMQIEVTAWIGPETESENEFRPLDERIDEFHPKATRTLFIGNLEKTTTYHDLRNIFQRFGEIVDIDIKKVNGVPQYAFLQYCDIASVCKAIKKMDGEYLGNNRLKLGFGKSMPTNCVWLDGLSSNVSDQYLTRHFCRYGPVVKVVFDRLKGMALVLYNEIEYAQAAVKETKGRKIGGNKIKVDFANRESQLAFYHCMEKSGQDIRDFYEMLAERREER
Kind of data set: EMSA. Particulars: EMSA: 20 mM Tris-HCl pH 7.5, 150 mM KCl, 5 mM MgCl2, 10% glycerol, room temperature 30 min, 2 nM each labeled RNA (multiplexed), 4.5% TBE native gel. For orientation: A gel shift assay detects complexes by their altered migration in electrophoresis.

Data set [2] addresses T2, SPEN RRM 2-4 (Homo sapiens) (UniProt Q96T58).
T2 sequence: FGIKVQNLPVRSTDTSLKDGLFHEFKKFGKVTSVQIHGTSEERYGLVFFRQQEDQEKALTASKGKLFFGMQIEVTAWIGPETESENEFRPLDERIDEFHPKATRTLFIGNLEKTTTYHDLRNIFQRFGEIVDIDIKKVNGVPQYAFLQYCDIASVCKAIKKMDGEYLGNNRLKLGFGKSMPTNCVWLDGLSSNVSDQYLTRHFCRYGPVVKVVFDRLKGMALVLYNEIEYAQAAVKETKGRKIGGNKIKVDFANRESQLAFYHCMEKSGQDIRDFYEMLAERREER
Kind of data set: EMSA. Particulars: EMSA: 20 mM Tris-HCl pH 7.5, 150 mM KCl, 5 mM MgCl2, 10% glycerol, room temperature 30 min, 2 nM each labeled RNA (multiplexed), 4.5% TBE native gel.

Data set [3] concerns the target T3, SPEN RRM 2-4 mut3 F282A;K311A;Y319A;F321A;K353A (Homo sapiens) (UniProt Q96T58).
T3 sequence: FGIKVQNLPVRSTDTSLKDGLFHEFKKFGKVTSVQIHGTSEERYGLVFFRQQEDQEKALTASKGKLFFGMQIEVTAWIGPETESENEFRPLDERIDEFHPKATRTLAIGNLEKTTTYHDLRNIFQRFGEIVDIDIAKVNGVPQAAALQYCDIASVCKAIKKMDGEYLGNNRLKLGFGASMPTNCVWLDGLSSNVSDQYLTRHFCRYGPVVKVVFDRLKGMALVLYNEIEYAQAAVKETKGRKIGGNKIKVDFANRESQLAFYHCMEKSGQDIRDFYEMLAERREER
Nature of the data set: EMSA. Particulars: EMSA: 20 mM Tris-HCl pH 7.5, 150 mM KCl, 5 mM MgCl2, 10% glycerol, room temperature 30 min, 2 nM each labeled RNA (multiplexed), 4.5% TBE native gel.

Data set [4] concerns the target T4, SPEN RRM 1-4 (Homo sapiens, UniProt Q96T58).
T4 sequence: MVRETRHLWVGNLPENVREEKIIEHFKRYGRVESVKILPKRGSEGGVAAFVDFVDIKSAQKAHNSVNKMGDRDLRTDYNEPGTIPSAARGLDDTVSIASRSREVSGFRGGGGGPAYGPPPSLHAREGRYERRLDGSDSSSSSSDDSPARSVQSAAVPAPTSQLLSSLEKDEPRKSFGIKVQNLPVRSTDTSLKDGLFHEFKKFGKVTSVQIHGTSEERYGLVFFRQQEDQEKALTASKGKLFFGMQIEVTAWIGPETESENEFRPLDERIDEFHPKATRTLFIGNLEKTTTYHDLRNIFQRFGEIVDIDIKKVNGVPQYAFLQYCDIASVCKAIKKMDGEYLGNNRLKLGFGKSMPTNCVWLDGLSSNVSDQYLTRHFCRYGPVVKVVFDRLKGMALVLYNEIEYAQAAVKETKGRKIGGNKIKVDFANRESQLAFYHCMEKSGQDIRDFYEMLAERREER
Kind of data set: EMSA; Hill 1; EMSA: 20 mM Tris-HCl pH 7.5, 150 mM KCl, 5 mM MgCl2, 10% glycerol, room temperature 30 min, 2 nM each labeled RNA (multiplexed), 4.5% TBE native gel. Particulars: protein: recombinant, tags: 6xHis-MBP-TEV at N-terminus, removed by TEV cleavage.

In data set [5] the target is T4, SPEN RRM 1-4. Kind of data set: EMSA; Hill 2; EMSA: 20 mM Tris-HCl pH 7.5, 150 mM KCl, 5 mM MgCl2, 10% glycerol, room temperature 30 min, 2 nM each labeled RNA (multiplexed), 4.5% TBE native gel. Particulars: protein: recombinant; tags: 6xHis-MBP-TEV at N-terminus, removed by TEV cleavage; label: internal fluorophore-UTP.
The target in data set [6] is T5, SPEN RRM 2-4 (Homo sapiens, UniProt Q96T58).
T5 sequence: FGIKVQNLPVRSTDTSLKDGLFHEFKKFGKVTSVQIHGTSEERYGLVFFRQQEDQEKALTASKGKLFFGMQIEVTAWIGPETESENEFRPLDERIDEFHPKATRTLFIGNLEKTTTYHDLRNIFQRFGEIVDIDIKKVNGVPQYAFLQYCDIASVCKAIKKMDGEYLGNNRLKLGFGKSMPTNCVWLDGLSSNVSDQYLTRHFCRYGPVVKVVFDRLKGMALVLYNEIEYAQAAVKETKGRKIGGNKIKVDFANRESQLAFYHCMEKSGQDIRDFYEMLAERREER
Nature of the data set: EMSA; Hill 10; EMSA: 20 mM Tris-HCl pH 7.5, 150 mM KCl, 5 mM MgCl2, 10% glycerol, room temperature 30 min, 2 nM each labeled RNA (multiplexed), 4.5% TBE native gel. Particulars: protein: recombinant; tags: 6xHis-MBP-TEV at N-terminus, removed by TEV cleavage; label: internal Cy3-, Cy5- or fluorescein-UTP.

For data set [7], the target named is T6, SPEN RRM 2-4 mut3 (Homo sapiens, UniProt Q96T58, F282A;K311A;Y319A;F321A;K353A).
T6 sequence: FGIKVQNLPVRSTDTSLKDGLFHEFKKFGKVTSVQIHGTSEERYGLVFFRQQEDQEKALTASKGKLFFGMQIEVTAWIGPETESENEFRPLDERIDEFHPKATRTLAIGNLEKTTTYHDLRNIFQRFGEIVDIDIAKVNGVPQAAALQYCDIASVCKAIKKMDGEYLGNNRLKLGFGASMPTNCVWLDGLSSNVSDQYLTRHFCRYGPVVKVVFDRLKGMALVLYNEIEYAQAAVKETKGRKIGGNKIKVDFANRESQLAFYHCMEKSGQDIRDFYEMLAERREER
Nature of the data set: EMSA; Hill 2; text: loss of binding (Kd >1000 nM); EMSA: 20 mM Tris-HCl pH 7.5, 150 mM KCl, 5 mM MgCl2, 10% glycerol, room temperature 30 min, 2 nM each labeled RNA (multiplexed), 4.5% TBE native gel. Particulars: protein: recombinant; tags: 6xHis-MBP-TEV at N-terminus, removed by TEV cleavage; label: internal Cy3-, Cy5- or fluorescein-UTP.

Data set [8] has as its target T4, SPEN RRM 1-4. Kind of data set: EMSA; Hill 5; EMSA: 20 mM Tris-HCl pH 7.5, 150 mM KCl, 5 mM MgCl2, 10% glycerol, room temperature 30 min, 2 nM each labeled RNA (multiplexed), 4.5% TBE native gel. Particulars: protein: recombinant; tags: 6xHis-MBP-TEV at N-terminus, removed by TEV cleavage; label: internal fluorophore-UTP.
Where [9] appears, read: label: internal fluorophore-UTP.

On to “GCGAGGAGCCUUUCAUCCGAAGGCGGGACGAUGCCGGAUAAUCGGCAGCCGAGGAACCGGCAGCCGAGGAUCCGCUCCGGGAACGAGCCUCGUUCCGCGCCCGCCAUGGAACCGGAUGGUCGCGGUGCCUGGGCCCACAGUCGCGCCGCGCUCGACCGCCUGGAGAAGCUGCUGCGCUGCUCGCGUUGUACUAACAUUCUGAGAGAGCCUGUGUGUUUAGGAGGAA [BARD1 mRNA fragment]”, for which the dissociation constant Kd in data set [1] was 210 nM.
In the case of “GGGCUGCGGAUACCUGGUUUUAUUAUUUUUUCUUUGCCCAACGGGGCCGUGGAUACCUGCCUUUUAAUUCUUUUUUAUUCGCCCAUCGGGGCCGCGGAUACCUGCUUUUUAUUUUUUUUUCCUUAGCCCAUCGGGGUAUCGGAUACCUGCUGAUUCCCUUCCCCUCUGAACCCCCAACACUCUGGCCCAUCGGGGUGACGGAUAUCUGCUUUUUAAAAAUUUUCUUUUUUUGGCCCAUCGGGGCUUCGGAUACCUGCUUUUUUUUUUUUUAUUUUUCCUUGCCCAUCGGGGCCUCGGAUACCUGCUUUAAUUUUUGUUUUUCUGGCCCAUCGGGGCCGCGGAUACCUGCUUUGAUUUUUUUUUUUCAUCGCCCAUCGGUGCU [XIST A-full]”, the equilibrium dissociation constant (Kd) amounted to 120 nM in data set [2], 230 nM in data set [3] and 100 nM in data set [1].
Consider “GUACCAGGUAUGUGAUGACAUCAGCCGACGCCUGGCACUGCUGCAGGAACAGUGGGCUGGAGGAAAGUUGUCAAUACCUGUAAAGAAGAGAAUGGCUCUACUGGUGCAAGAGCUUUCAAGCCACCGGUGGGACGCAGCAGAUGACAUCCACCGCUCCCUCAUGGUUGACCAUGUGACUGAGGUCAGUCAGUGGAUGGUAGGAGUUAAAAGAUUAAUUGCAGAAAAGAGGAGUCUGUUUUCAGAGGAGGCAGCCAAUGAAGAGAAAUCUGCAGCCACAGCUGAGAAGAACCAUACCAUACCAGGCUUCCAGCAGGCUUCAUAAUCCUCGGUUCCCCAGACUCACCGGACACCAUCUCCU [SRA]”, for which the dissociation constant (Kd) came out at 300 nM in data set [2], 950 nM in data set [3] and 100 nM in data set [1].

B1: XIST A6-8 (trimer) (structured_RNA)
RNA: GGCCCAUCGGGGCUUCGGAUACCUGCUUUUUUUUUUUUUAUUUUUCCUUGCCCAUCGGGGCCUCGGAUACCUGCUUUAAUUUUUGUUUUUCUGGCCCAUCGGGGCCGCGGAUACCUGCUU
Regarding B1, the equilibrium dissociation constant (Kd) in data set [4] (setting [9]) was found to be 288 ± 39 nM.

B2: XIST A6-9+ (structured_RNA)
RNA: GGCUUCGGAUACCUGCUUUUUUUUUUUUUAUUUUUCCUUGCCCAUCGGGGCCUCGGAUACCUGCUUUAAUUUUUGUUUUUCUGGCCCAUCGGGGCCGCGGAUACCUGCUUUGAUUUUUUUUUUUCAUCGCCCAUCGGUGCUUUUUAUGGAUGAAAAAAUGUUGGUUUUGUGGGUUGUUGCACUCUCUGGAAUAUCUACACUUUUUUUUGCUGCUGAUCAUUUGGUGG
For B2, the dissociation constant (Kd) in data set [4] (label: internal fluorophore-UTP (EMSA)) is 48 ± 5 nM.

B3: XIST A4-6 (structured_RNA)
RNA: GCCGCGGAUACCUGCUUUUUAUUUUUUUUUCCUUAGCCCAUCGGGGUAUCGGAUACCUGCUGAUUCCCUUCCCCUCUGAACCCCCAACACUCUGGCCCAUCGGGGUGACGGAUAUCUGCUUUUUAAAAAUUUUCUUUUUUUGGCCCAUCGGGGCUUCGGAUACCUGCUUUUUUUUUUUUUAUUUUUCCUUGCCCAUCGGGG
For the molecule B3, the Kd in data set [5] came to 132 ± 10 nM.

B4: XIST A7-8 (dimer) (structured_RNA)
RNA: GUUGCCCAUCGGGGCCUCGGAUACCUGCUUUAAUUUUUGUUUUUCUGGCCCAUCGGGGCCGCGGAUACCUGCUU
B4: in data set [4] (setting [9]), the equilibrium dissociation constant (Kd) turned out to be 248 ± 68 nM.

B5: XIST A6-9 (structured_RNA)
RNA: GGCUUCGGAUACCUGCUUUUUUUUUUUUUAUUUUUCCUUGCCCAUCGGGGCCUCGGAUACCUGCUUUAAUUUUUGUUUUUCUGGCCCAUCGGGGCCGCGGAUACCUGCUUUGAUUUUUUUUUUUCAUCGCCCAUCGGUGCU
On to B5, for which the equilibrium dissociation constant (Kd) in data set [5] stood at 185 ± 9 nM.

B6: BARD1 mRNA fragment (structured_RNA)
RNA: GCGAGGAGCCUUUCAUCCGAAGGCGGGACGAUGCCGGAUAAUCGGCAGCCGAGGAACCGGCAGCCGAGGAUCCGCUCCGGGAACGAGCCUCGUUCCGCGCCCGCCAUGGAACCGGAUGGUCGCGGUGCCUGGGCCCACAGUCGCGCCGCGCUCGACCGCCUGGAGAAGCUGCUGCGCUGCUCGCGUUGUACUAACAUUCUGAGAGAGCCUGUGUGUUUAGGAGGAA
Turning to B6, the Kd in data set [6] was 550 ± 30 nM; in data set [7], 2300 ± 500 nM.

B7: tRNA-Cys (structured_RNA)
RNA: GGGGGUAUAGCUCAGGGGUAGAGCAUUUGACUGCAAAUCAAGAGGUCCCUGAUUCAAAUCCAGGUGCCCCCUCCAAGCUUG
As for B7, the Kd in data set [4] (setting [9]) is 245 ± 78 nM.

B8: XIST A5-8 (structured_RNA)
RNA: GCCCAUCGGGGUGACGGAUAUCUGCUUUUUAAAAAUUUUCUUUUUUUGGCCCAUCGGGGCUUCGGAUACCUGCUUUUUUUUUUUUUAUUUUUCCUUGCCCAUCGGGGCCUCGGAUACCUGCUUUAAUUUUUGUUUUUCUGGCCCAUCGGGGCCGCGGAUACCUGCUU
On to B8, for which the equilibrium dissociation constant (Kd) in data set [8] was 127 ± 4 nM.

B9: XIST A1-4 (structured_RNA)
RNA: GCUGCGGAUACCUGGUUUUAUUAUUUUUUCUUUGCCCAACGGGGCCGUGGAUACCUGCCUUUUAAUUCUUUUUUAUUCGCCCAUCGGGGCCGCGGAUACCUGCUUUUUAUUUUUUUUUCCUUAGCCCAUCGGGGUAUCGGAUACCUGCUGAUUCCCUUCCCCUCUGAACCCCCAACACUCUGGCCCAUCG
In the case of B9, in data set [4] (setting [9]), the Kd amounted to 71 ± 4 nM.

Usually Kd stands for the free concentration of one partner at which half of the binding sites on the other are occupied at equilibrium, for simple one-to-one binding.
